In experiment [1] the target is T1, CTLA4 (antigen immobilised on the biosensor) (human, UniProt P16410 36-161, biotinylated in Examples 30 and 35).
T1 construct: also called hCTLA4; biotinylated human CTLA4
Briefly: Octet biolayer interferometry; antigen immobilised, B-Body as analyte. On the technique in general: BLI is a label-free optical method that tracks binding on a fibre tip over time.

Experiment [2] addresses T1, CTLA4 (antigen immobilised on the …). Briefly: BLI steady state analysis, biotinylated CTLA4 on streptavidin sensor, two-fold dilutions of the binding molecule from 2 µM to 31.25 nM; monovalent.

T1 sequence (P16410 36-161 limits assumed): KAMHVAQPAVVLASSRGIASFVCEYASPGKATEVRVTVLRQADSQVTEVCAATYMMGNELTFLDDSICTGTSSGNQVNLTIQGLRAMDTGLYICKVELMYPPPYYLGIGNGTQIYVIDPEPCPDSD

B1: bivalent bispecific B-Body “BC1” (PD1 x Antigen A) (bispecific antibody)
chain 1: not shown
chain 2: EVQLVESGGGLVQPGGSLRLSCAASGFTFSDYDIHWVRQAPGKGLEWVGDITPYDGTTNYADSVKGRFTISADTSKNTAYLQMNSLRAEDTAVYYCARLVGEIATGFDYWGQGTLVTVSSASPREPQVYTDPPSRDELTKNQVSLTCLVKGFYPSDIAVEWESNGQPENNYKTTPPVLDSDGSFFLYSKLTVDKSRWQQGNVFSCSVMHEALHNHYTQKSLSLSGEC
chain 3: not shown
chain 4: QVQLVESGGGVVQPGRSLRLDCKASGITFSNSGMHWVRQAPGKGLEWVAVIWYDGSKRYYADSVKGRFTISRDNSKNTLFLQMNSLRAEDTAVYYCATNDDYWGQGTLVTVSSASTKGPSVFPLAPSSKSTSGGTAALGCLVKDYFPEPVTVSWNSGALTSGVHTFPAVLQSSGLYSLSSVVTVPSSSLGTQTYICNVNHKPSNTKVDKKVEPPKSC
notes: Chains 1+2 form the Antigen A site, chains 3+4 the PD1 site (nivolumab variable domains)
For B1, in experiment [1], the binding result is reported as “no binding (tested: not given on the sheet)”.

B2: BC1 1×1 B-Body SNIPER 19×8 binding molecule (CTLA4-19 x CD25-8) (bispecific antibody)
chain 1: not shown
chain 2: EVQLVESGGGLVQPGGSLRLSCAASGFTFSGYWIHWVRQAPGKGLEWVAAITSRDSYTYYADSVKGRFTISADTSKNTAYLQMNSLRAEDTAVYYCARGSYLGSAFDYWGQGTLVTVSSASPREPQVYTDPPSRDELTKNQVSLTCLVKGFYPSDIAVEWESNGQPENNYKTTPPVLDSDGSFFLYSKLTVDKSRWQQGNVFSCSVMHEALHNHYTQKSLSLSGEC
chain 3: SDIQMTQSPSSLSASVGDRVTITCRASQSVSSAVAWYQQKPGKAPKLLIYSASSLYSGVPSRFSGSRSGTDFTLTISSLQPEDFATYYCQQYSSQPATFGQGTKVEIKRTVAAPSVFIFPPSDEQLKSGTASVVCLLNNFYPREAKVQWKVDNALQSGNSQESVTEQDSKDSTYSLSSTLTLSKADYEKHKVYACEVTHQGLSSPVTKSFNRGECDKTHTCPPCPAPELLGGPSVFLFPPKPKDTLMISRTPEVTCVVVDVSHEDPEVKFNWYVDGVEVHNAKTKPREEQYNSTYRVVSVLTVLHQDWLNGKEYKCKVSNKALPAPIEKTISKAKGQPREPQVCTLPPSREEMTKNQVSLSCAVKGFYPSDIAVEWESNGQPENNYKTTPPVLDSDGSFFLVSKLTVDKSRWQQGNVFSCSVMHEALHNHYTQKSLSLSPGK
chain 4: EVQLVESGGGLVQPGGSLRLSCAASGFTFSSYYIHWVRQAPGKGLEWVAKIQPKGGYTYYADSVKGRFTISADTSKNTAYLQMNSLRAEDTAVYYCARSYYYRPHAFDYWGQGTLVTVSSASTKGPSVFPLAPSSKSTSGGTAALGCLVKDYFPEPVTVSWNSGALTSGVHTFPAVLQSSGLYSLSSVVTVPSSSLGTQTYICNVNHKPSNTKVDKKVEPPKSC
The Kd is the equilibrium constant for the complex coming apart. Higher therefore signals lower affinity. For B2, the affinity in experiment [2], expressed as Kd, was 19 nM.

(Values after patent US20220213225A1 (INVENRA, published 2022).)
